The values below come from US9327008B2, “Cell-permeant peptide-based inhibitor of kinases” (Purdue Research Foundation, priority 2008, dated 2016).

What all share (assay type): biochemical
In one test the target is T1, Ret (Homo sapiens, UniProt P07949).
T1 construct: purchased Millipore (radiometric assay service)
As to the kind of experiment: Millipore radiometric kinase activity assay, Ret (h). The note with it: peptide 100 μM. Here is the method:
(§1) A commercial radiometric assay service (Millipore, Billerica, Mass.) was used to test the specificity and potency of peptides containing a coupled transduction domain and therapeutic domain, hereinafter “complete peptides”). In these assays, if the kinase is not inhibited by an inhibitor peptide, a positively charged substrate is phosphorylated with a radiolabeled phosphate group from an ATP.
(§2) In a final reaction volume of 25 μL, Ret (h) (5-10 mU) is incubated with 8 mM MOPS pH 7.0, 0.2 mM EDTA, 250 μM […] [SEQ ID NO: 56], 10 mM MgAcetate and [γ-^33P-ATP] (specific activity approx. 500 cpm/pmol, concentration as required). The reaction is initiated by the addition of the MgATP mix. After incubation for 40 minutes at room temperature, the reaction is stopped by the addition of 5 μl, of a 3% phosphoric acid solution. 10 μL of the reaction is then spotted onto a P30 filtermat and washed three times for 5 minutes in 75 mM phosphoric acid and once in methanol prior to drying and scintillation counting.
(§3) IC50 values for inhibitor peptides were determined using Millipore's IC50Profiler Express service. The IC50 value was estimated from a 10-point curve of one-half log dilutions. […]

Another test deals with T2, TrkA (Homo sapiens, UniProt P04629).
T2 construct: purchased Millipore (radiometric assay service)
As to the kind of experiment: Millipore radiometric kinase activity assay, TrkA (h). How it is done: as §1
as §2, with “TrkA” for “Ret”, “μL” for “μl,”
(§4) IC50 values for inhibitor peptides were determined using Millipore's IC50Profiler Express service. The IC50 value was estimated from a 10-point curve of one-half log dilutions. For peptides tested for specificity, the concentration of the peptides that inhibited approximately 95% of MK2 activity was chosen to profile against a battery of kinases related to MK2, cell viability, or human disease from MilliporeKinaseProfiler service. In both assays, compounds were supplied in dimethylsulfoxide (DMSO). Every kinase activity measurement was conducted in duplicate.
(§5) Therapeutic inhibitor peptides were assayed for activity against human kinases related to MK2, cell viability, or human disease. The assays were performed using concentrations of therapeutic inhibitor peptides that yielded 2% to 8% of normal MK2 activity. Error is reported as the standard deviation between 2 samples, and “c” is rat AMPK whereas all other kinases used are human kinases.

A further test has as its target T3, PKG1α (Homo sapiens, UniProt Q13976).
T3 construct: purchased Millipore (radiometric assay service)
T3 sequence (Q13976 1-671): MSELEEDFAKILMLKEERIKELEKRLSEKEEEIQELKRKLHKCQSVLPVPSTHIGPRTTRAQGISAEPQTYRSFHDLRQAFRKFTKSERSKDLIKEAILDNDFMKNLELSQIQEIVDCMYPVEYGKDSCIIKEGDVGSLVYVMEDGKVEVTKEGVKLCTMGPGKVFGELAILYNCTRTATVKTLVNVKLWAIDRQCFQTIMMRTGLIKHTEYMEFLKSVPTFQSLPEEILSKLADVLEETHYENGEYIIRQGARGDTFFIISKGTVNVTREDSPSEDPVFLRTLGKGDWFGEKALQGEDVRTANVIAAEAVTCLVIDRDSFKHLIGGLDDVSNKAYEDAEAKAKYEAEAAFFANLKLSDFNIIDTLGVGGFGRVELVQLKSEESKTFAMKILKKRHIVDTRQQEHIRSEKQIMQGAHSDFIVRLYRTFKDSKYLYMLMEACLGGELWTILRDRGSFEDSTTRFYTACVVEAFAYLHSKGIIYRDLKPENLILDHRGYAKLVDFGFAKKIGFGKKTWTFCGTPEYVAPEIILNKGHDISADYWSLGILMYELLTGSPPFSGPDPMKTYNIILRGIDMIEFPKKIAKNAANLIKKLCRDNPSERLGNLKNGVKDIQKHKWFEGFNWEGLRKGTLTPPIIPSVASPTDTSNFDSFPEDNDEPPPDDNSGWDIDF
As to the kind of experiment: Millipore radiometric kinase activity assay, PKG1α (h). The note with it: peptide 100 μM. How it is done:
as §1
as §2, with “PKG1α” for “Ret”, “10 μM cGMP, 200” for “250”, “62],” for “56],”, “μL” for “μl,”
as §3

Another test has as its target T4, c-Kit (Homo sapiens, UniProt P10721).
T4 construct: purchased Millipore (assay service)
As to the kind of experiment: Millipore radiometric kinase activity assay, c-Kit (h). Here is the method: as §1
(§6) In a final reaction volume of 25 μL, c-Kit (h) (5-10 mU) is incubated with 8 mM MOPS pH 7.0, 0.2 mM EDTA, 10 mM MnCl2, 0.1 mg/mL poly(Glu, Tyr) 4:1, 10 mM MgAcetate and [γ-^33P-ATP] (specific activity approx. 500 cpm/pmol, concentration as required). The reaction is initiated by the addition of the MgATP mix. After incubation for 40 minutes at room temperature, the reaction is stopped by the addition of 5 μL of a 3% phosphoric acid solution. 10 μL of the reaction is then spotted onto a Filtermat A and washed three times for 5 minutes in 75 mM phosphoric acid and once in methanol prior to drying and scintillation counting.
as §4, §5

A further test has as its target T5, CDK1/cyclinB (Homo sapiens, UniProt P06493).
T5 construct: purchased Millipore (assay service)
As to the kind of experiment: Millipore radiometric kinase activity assay, CDK1/cyclinB (h). Here is the method: as §1
as §6, with “CDK1/cyclinB” for “c-Kit”, “EDTA,” for “EDTA, 10 mM MnCl2,”, “histone H1,” for “poly(Glu, Tyr) 4:1,”, “P30 filtermat” for “Filtermat A”
as §4, §5

T5 sequence (P06493 whole entry): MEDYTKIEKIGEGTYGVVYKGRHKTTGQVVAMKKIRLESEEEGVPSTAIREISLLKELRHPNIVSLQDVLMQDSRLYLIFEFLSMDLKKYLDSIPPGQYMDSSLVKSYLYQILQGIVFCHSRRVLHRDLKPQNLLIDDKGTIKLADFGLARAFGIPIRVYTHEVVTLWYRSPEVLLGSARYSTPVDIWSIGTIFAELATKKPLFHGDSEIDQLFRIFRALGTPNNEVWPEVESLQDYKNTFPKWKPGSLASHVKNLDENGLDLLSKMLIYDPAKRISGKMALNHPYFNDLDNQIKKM
T5 sequence (P14635 whole entry partner): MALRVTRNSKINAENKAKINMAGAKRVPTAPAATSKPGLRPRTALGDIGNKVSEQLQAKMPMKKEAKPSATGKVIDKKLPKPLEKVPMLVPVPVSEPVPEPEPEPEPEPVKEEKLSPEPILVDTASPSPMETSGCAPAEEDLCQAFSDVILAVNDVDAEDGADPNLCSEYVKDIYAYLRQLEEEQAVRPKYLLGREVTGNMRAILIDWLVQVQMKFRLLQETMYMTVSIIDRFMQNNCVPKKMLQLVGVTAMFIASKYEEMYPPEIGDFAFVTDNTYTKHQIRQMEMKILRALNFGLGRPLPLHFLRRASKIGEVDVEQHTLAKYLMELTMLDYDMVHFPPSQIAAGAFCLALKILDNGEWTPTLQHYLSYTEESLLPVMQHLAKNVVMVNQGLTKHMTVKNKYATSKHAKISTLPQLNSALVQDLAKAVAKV
T4 sequence (P10721 26-976): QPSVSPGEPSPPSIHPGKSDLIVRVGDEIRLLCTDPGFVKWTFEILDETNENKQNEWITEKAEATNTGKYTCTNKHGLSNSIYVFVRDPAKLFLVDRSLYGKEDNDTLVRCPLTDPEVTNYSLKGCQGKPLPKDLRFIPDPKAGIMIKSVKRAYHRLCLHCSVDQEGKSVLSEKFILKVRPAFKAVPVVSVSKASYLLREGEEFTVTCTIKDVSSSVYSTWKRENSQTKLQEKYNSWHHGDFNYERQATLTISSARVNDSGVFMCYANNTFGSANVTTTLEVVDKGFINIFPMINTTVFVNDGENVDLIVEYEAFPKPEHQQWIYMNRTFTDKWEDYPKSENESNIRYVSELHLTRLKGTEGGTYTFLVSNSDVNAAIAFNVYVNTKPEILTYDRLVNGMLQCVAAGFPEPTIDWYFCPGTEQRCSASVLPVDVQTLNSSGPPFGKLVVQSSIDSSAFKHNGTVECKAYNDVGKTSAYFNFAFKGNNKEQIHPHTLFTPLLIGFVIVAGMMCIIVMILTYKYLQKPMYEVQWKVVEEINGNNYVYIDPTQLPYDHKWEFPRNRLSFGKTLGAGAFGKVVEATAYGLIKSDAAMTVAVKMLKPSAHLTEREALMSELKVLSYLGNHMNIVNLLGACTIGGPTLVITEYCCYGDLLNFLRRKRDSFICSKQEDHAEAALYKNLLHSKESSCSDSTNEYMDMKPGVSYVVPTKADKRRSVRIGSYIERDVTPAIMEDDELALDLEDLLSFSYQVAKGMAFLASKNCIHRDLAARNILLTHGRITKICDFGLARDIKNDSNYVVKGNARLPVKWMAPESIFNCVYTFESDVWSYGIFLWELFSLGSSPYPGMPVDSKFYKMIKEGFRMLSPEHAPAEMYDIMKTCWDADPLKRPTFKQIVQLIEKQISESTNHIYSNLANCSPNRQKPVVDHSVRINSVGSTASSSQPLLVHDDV
T2 sequence (P04629 33-796): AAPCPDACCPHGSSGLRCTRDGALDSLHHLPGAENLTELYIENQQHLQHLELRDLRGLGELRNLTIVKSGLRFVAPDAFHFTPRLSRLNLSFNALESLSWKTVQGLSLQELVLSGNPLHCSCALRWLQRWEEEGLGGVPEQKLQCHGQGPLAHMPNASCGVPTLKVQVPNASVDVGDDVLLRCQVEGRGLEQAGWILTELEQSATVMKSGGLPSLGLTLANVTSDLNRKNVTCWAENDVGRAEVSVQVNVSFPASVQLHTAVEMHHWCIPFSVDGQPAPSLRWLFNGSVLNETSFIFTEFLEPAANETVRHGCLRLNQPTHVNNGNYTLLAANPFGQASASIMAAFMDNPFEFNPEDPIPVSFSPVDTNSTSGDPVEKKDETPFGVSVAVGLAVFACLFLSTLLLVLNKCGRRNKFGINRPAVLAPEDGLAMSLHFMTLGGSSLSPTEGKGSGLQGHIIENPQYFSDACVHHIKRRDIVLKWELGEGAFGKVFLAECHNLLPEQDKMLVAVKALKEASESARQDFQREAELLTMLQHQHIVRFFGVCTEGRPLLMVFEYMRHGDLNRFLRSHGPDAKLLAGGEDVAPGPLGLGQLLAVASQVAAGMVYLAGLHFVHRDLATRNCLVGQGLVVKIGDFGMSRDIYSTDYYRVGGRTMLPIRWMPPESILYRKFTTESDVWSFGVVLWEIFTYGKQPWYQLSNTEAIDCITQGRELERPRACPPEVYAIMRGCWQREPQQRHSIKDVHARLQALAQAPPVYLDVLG
T1 sequence (P07949 29-1114): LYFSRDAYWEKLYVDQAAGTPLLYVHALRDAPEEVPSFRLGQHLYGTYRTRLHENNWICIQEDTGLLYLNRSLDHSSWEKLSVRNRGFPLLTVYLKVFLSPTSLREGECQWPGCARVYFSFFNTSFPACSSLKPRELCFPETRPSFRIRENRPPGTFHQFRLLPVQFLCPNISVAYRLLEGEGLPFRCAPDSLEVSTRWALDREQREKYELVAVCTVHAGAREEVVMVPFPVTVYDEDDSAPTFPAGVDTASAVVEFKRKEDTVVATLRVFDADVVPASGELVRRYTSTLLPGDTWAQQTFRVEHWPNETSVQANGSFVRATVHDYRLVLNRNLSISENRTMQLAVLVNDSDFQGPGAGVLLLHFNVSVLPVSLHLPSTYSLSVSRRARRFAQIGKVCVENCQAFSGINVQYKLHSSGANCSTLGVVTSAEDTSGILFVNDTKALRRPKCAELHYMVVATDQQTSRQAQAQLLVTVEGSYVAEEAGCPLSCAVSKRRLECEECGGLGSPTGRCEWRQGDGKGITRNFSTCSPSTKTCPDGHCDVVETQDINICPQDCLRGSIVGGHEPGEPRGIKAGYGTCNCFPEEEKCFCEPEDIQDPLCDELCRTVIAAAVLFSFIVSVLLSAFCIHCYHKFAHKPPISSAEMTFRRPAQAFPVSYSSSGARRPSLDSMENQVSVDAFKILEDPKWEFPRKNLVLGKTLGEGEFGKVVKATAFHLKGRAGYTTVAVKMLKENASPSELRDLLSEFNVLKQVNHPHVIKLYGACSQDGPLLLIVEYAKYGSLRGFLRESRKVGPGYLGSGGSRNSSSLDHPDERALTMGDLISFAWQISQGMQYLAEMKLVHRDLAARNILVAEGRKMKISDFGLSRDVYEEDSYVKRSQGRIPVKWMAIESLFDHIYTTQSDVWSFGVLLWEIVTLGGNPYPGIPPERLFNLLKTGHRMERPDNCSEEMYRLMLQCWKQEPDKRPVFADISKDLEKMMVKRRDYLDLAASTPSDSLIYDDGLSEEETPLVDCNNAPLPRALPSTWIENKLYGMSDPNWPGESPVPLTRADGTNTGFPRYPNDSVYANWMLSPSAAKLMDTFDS

KAFAKLAARLYRKALARQLGVAA: the “Ret Kinase Activity (%) (+SD %)” value with Ret is recorded as 107 (9) %. Besides, the “TrkA Kinase Activity (%) (+SD %)” value with TrkA (peptide 100 μM) is given as 16 (2) %. The “PKG1α Kinase Activity (%) (+SD %)” value with PKG1α is reported as 25 (2) %. Also, the “cKit Kinase Activity (%) (+SD %)” value with c-Kit (peptide 100 μM) was 31 (6) %. Further, the “CDK1/cyclin B Kinase Activity (%) (+SD %)” value with CDK1/cyclinB (peptide 100 μM) is on record as 55 (3) %.

Take WLRRIKAWLRRIKALNRQLGVAA: in the test with Ret, the “Ret Kinase Activity (%) (+SD %)” value is listed as 89 (0) %. The “TrkA Kinase Activity (%) (+SD %)” value was 6 (1) % in the test with TrkA (peptide 30 μM) and 17 (2) % with TrkA (peptide 100 μM). Moreover, in the test with PKG1α, the “PKG1α Kinase Activity (%) (+SD %)” value is listed as 12 (2) %. The “cKit Kinase Activity (%) (+SD %)” value with c-Kit (peptide 30 μM) was 23 (2) %; in the test with c-Kit (peptide 100 μM), 42 (3) %. In addition, the “CDK1/cyclin B Kinase Activity (%) (+SD %)” value with CDK1/cyclinB (peptide 30 μM) is on record as 17 (0) %; with CDK1/cyclinB (peptide 100 μM), 36 (2) %.
